Laboratory results taken from US7317096 (LEADD B V, dated 2008).

Target: the molecule itself
Assay: size exclusion chromatography (Superose 6 HR 10/30)

B1: MBP-AAP-1 fusion protein (pMAL-AAP-1) (other, not shown: large carriers)
chain: MTMGDKKSPTRPKRQAKPAADEGFWDCSVCTFRNSAEAFKCSICDVRKGTSTRKPRINSQLVAQQVAQQYATPPPPKKEKKEKVEKQDKEKPEKDKEISPSVTKKNTNKKTKPKSDILKDPPSEANSIQSANATTKTSETNHTSRPRLKNVDRSTAQQLAVTVGNVTVIITDFKEKTRSSSTSSSTVTSSAGSEQQNQSSSGSESTDKGSSRSSTPKGDMSAVNDESF
notes: Produced in E. coli, 90 to 95% pure; Printed as 'a Homotrimer or Homo-tetramer'; also called MBP-AAPI
binding result: binds
